Positions count from the first letter of the chain named.
T1: linker-less human LDLa peptide (Q8WXD0 43-80) (Homo sapiens, UniProt Q8WXD0, not fully specified)
T1 construct: relaxin family peptide receptor 2 (RXFP2), human, LDLa module without the linker, residues 43-80; also called LDLa linker-less domain
T1 chain: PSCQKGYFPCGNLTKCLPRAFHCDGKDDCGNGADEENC

B1: RXFP2 mAb 4F6 (antibody, V domains shown)
VH: EVQLQQSGPELVKPGASVKMSCKASGYTFTNYVLHWVKQKPGQGLEWIGYINPYNDGSKYNEKFKGRATLTSDKSSSTAYMELSSLTSEDSAVYYCARGGWLLDYFDYWGQGTTLTVSS
VL: DVLMTQSPLSLPVSLGEQASISCRSSQSIVHSDGDTYLEWYLQKPGQSPNLLIYKVSNRFSGVPDRFSGSGSGTDFTLKISRVEAEDLGVYYCFQGSHVPPTFGGGTKLEIK
notes: heavy chain variable domain; rat IgG2b heavy chain constant region (rat IgG2b backbone, in-house construct); Recombinant in a rat IgG2b backbone; found as a mouse hybridoma clone; source: Expi293, transfected, purified (Protein G)
B2: RXFP2 mAb 4G6 (antibody, V domains shown)
VH: EVQLQQSGPELVKPGASVKLSCKASGYTFTSYVMHWVKQKPEQGLEWIGYKNPSNDGIKYNEKFKGKATLTSDKSSNIAYMELFSLTSEDSAVYYCARSDFGSVWAMDYWGQGTSVTVSS
VL: SIVMTQTPKFLLVSAGDRVTITCKASQSVNDDIVWYQQKPGQSPKLLIYYASNRYTGVPDRFTGSGYGTDFTFTISTVQAGDLAVYFCQQDYSSPFTFGSGTKLEIK
notes: as for B1
B3: RXFP2 mAb 4B1 (antibody, V domains shown)
VH: QVQLQQSGAELVRPGSSVRISCKASGYAFSNSWINWVKQRPGQGLEWMGQIYPGDGNTNYNGRFKDKATLTADKSSSTAYMQLSSLTSEDSAVYFCARDHNYWGQGTTLTVSS
VL: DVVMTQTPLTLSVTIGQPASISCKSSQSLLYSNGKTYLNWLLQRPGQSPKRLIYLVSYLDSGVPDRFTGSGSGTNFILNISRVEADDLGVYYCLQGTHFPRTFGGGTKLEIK
notes: as for B1
B4: RXFP2 mAb 4A5 (antibody, V domains shown)
VH: DVQLVESGGGLVQPGGSRKLSCAASGFTFSTFGMHWVRQAPEKGLEWVAYISSGSSTIYYADTVKGRFTISRDNPKNTLFLQMTSLRSDDTAMYYCSRSYYGSAHYFDYWGQGTTLTVSS
VL: DIQMTQSPASLSVSVGETVTITCRASENIYSNLAWYQQKQGKSPQLLVYVATNLADGVPSRFSGSGSGTQYSLRINNLQSEDFGNYYCQHFWGTPPTFGGGTKLEIK
notes: as for B1
B5: RXFP2 mAb 1F2 (antibody, V domains shown)
VH: QVQLKQSGPGLVQPSQSLSITCTVSGFSLTAYGVNWVRQSPGKGLEWLGVIWSGGNTDYNAPFISRLSITKDNSKSQVFFKMNSLEADDTAIYYCARAKGYYAMDYWGQGTSVTVSS
VL: DIQMTQSPASLSVSVGESVTITCRATENIYSNLVWYQQKQGQSPQLLVYAVTSLADGVPSRFSGSGSGTQYSLKINSLQSEDFGTYYCQHFWGTPYTFGGGTKLEIK
notes: as for B1
B6: RXFP2 mAb 4H2 (antibody, V domains shown)
VH: QVQLRQSGPSLVQPSQSLSITCTVSGFSLTNYGVHWVRQSPGKGLEWLGVIWRGGNTDHNAAFMSRLSITKDNSESQVFFKMNSLQVDDTAIYYCAKAEGYYALDYWGQGTSVTVYS
VL: B4 VL with V50A, A51V, R74K, N77S, N85S, P96W
notes: as for B1
B7: RXFP2 mAb 2D4 (antibody, V domains shown)
VH: QVQLKESGPGLVAPSQSLSITCTVSGFSLTTYGISWVRQPPGKGLEWLGVIWTGGGTNYNSALKSRLSISKDNSKSQVFLKMNSLQTDDTARYYCARTEGYYVMDYWGQGTSVTVSS
VL: B4 VL with A34V, V50A, R74K, N85T, T94P, P96W
notes: as for B1
B8: RXFP2 mAb 3G4 (antibody, V domains shown)
VH: QVQLKESGPGLVAPSQSLSITCTVSGFSLTSYGVSWVRQPPGKGLEWLGVIWGDGSTNYHSALISRLSISKDNSKSQVFLKLNSLQTDDTATYYCAKSLGYYAMDYWGQGTSVTVSS
VL: B4 VL with A34V, V50A, D56E, R74K, N77S, N85S, T94P, P96W
notes: as for B1
B9: RXFP2 mAb 4B8 (antibody, V domains shown)
VH: QVQLKQSGPGLVQPSQSLSITCTVSGFSLSRYGVHWVRQSPGKGLEWLGVIWSGGSTEYNAVFKSRLSISKDNSKSQVFFKMNSLQANDTAIYYCVRADGYYAMEYWGQGTSVTVSS
VL: B4 VL with V50A, A51V, R74K, N77S, P96Y
notes: as for B1
B10: RXFP2 mAb 3H1 (antibody, V domains shown)
VH: QVQLKETGPGLVAPSQSLSITCTVSGFSLTNYGVNWVRQPPGKGLEWLVVIWSDGSTNYNSALKSRLSISKDNSKSQVFLKMNSLQTDDTAMYYCARQQGYYAMDYWGQGTSVIVSS
VL: B5 VL with S18T, T26S, V34A, Q42K, S53N, T85S, T94P
notes: as for B1
B11: RXFP2 mAb 3F1 (antibody, V domains shown)
VH: QVQLKESGPGLVAPSQSLSITCTVSGFSLTDYGVSWIRQPPGKGLEWLGVIWGGGSTDYNPALKSRLSISKDNSKSQVFLKMNSLQADDTAMYYCVKHEGYYAMDYWGQGTSVTVSS
VL: B5 VL with S18T, T26S, V34A, Q42K, Q45H, S53N, T85S
notes: as for B1
B12: RXFP2 mAb 4H5 (antibody, V domains shown)
VH: QVQLKQSGPGLVQPSQSLSITCTVSGFSLTNYGVHWVRQSPGKGLEWLGVIWRDGNTDYNAAFMSRLSITKDNSKSQVFFEMNSLQVDDTAIYYCCRGDGYYAMGYWGQGTSVTVSS
VL: B4 VL with K39R, K42R, V50A, R74K, N77S, T94S, P96R
notes: as for B1
B13: RXFP2 mAb 2H3 (antibody, V domains shown)
VH: QVTLKESGPGILQPSQTLSLTCSFSGFSLSTSGMSVGWIRQPSGKGLEWLAHIWWNDDKYYNPALKSRLTISKDTSNNQVFLKIASVVTADTATYYCARIGYYDGSPHAMDYWGQGTSVTVSS
VL: not shown
notes: as for B1
B14: RXFP2 mAb 1G1 (antibody, V domains shown)
VH: EVQLQQSGPELVKPGASVKMSCKASGYTFTDYNMHWVKQKPGQGLEWIGYINPYNDGTEYNEKFKGKATLTSDKSSSTAYMDLSSLTSEDSAVYYCARGLWFAMNYWGQGTSVTVSS
VL: DIQMTQSSSSFSVSLGDRVTITCKASEDIYNRLAWYQQKPGNTPRLLISGATILETGVPSRFSGSGSGKDYTLSIISLQTEDVATYYCQQYWIIPPTFGGGTKLEIK
notes: as for B1
B15: RXFP2 mAb 3F3 (antibody, V domains shown)
VH: QVQLQQPGSVLVRPGASVKLSCKASGYIFTSYWMHWVKQRPGQGLEWIGEIYPNSGRTSYNEKFKGKATVTVDTSSSTAYVDLSSLTSEDSAVYYCASGGHWFAYWGQGTLVTVSA
VL: B14 VL with T43A, I53S, T56A, I76T, A84S, I94T, P96Y
notes: as for B1
B16: RXFP2 mAb 4G7 (antibody, V domains shown)
VH: EVKLVESGGGLVQPGASLRLSCATSGFTFTDYYMSWVRQPPGKALEWLGFIRNKATGYTTEYSASVKGRFTISRDNSQSILYLQMNTLRAEDSATYYCARDLYYGDWYFDVWGAGTTVTVSS
VL: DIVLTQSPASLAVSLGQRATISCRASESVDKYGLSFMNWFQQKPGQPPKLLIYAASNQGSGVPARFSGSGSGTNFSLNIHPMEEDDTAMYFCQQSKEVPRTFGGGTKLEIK
notes: as for B1
B17: RXFP2 mAb 4H1 (antibody, V domains shown)
VH: QIQLVQSGPELKKPGETVKISCKTSGYTFTKYPMHWVKQAPGEGLKWMGWINTYSGLPTFADDFKGRFAFSLETSANTADLQINNLKNEDMATYFCAREGKKLSGYFDYWGQGTTLTVSS
VL: DIKMTQSPSSMYASLGERVTITCKASQDINSYLTWFQQKPGQSPKTLIYRANRFVDGVPSRFSGSGSGQDYSLTITSLEYEDMGIYYCLQYDEFPYTFGGGTQLEIK
notes: as for B1

Biological target: T1, linker-less human LDLa peptide (Q8WXD0 …)
Test: ELISA; human LDLa peptide (Q8WXD0 43-80) immobilised at 1 µg/mL in PBS on Maxisorp plates overnight at 4 °C; purified antibodies from 5 µg/mL, diluted 1:2 for 8 points, 1 h at room temperature; HRP secondary antibody, TMB
Conditions: both partners purified

| Binder | binding result |
| --- | --- |
| B1 | binds |
| B2 | binds |
| B3 | no binding (tested: 5 µg/mL (highest antibody concentration)) |

Biological target: T2, human LDLa-linker protein (huRXFP2-LDLa-linker(38-105)) (Homo sapiens, UniProt Q8WXD0)
T2 construct: relaxin family peptide receptor 2 (RXFP2), human, LDLa module and linker, residues 38-105; Expressed as LDLa-linker, enterokinase site, rat Fc, 8xHis; The Biacore methods say only 'LDLa-linker protein'; also called human LDLa-linker domain; source: Expi293, transfected, purified (Histrap excel, SEC); enterokinase digestion, Hispur Ni resin, Superdex 200; not shown: rat Fc, C-terminal, cleaved; …
T2 sequence (Q8WXD0 38-105): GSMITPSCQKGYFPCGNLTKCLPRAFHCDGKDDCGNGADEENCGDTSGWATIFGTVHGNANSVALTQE
Test: SPR; Biacore S200; goat anti-rat Fc gamma immobilised on a Series S CM5 chip, purified recombinant rat anti-RXFP2 antibodies captured at 5 µg/mL; rat or human LDLa-linker protein flowed as analyte at 20, 10, 5, 2.5, 1.75 and 0 nM; 1:1 fit model
Conditions: both partners purified

| Binder | Kd [nM] | binding result |
| --- | --- | --- |
| B1 | 11.7 | – |
| B4 | – | no binding (tested: 20 nM (highest analyte concentration)) |
| B5 | – | no binding (tested: 20 nM (highest analyte concentration)) |
| B6 | – | no binding (tested: 20 nM (highest analyte concentration)) |
| B7 | – | no binding (tested: 20 nM (highest analyte concentration)) |
| B8 | – | no binding (tested: 20 nM (highest analyte concentration)) |
| B9 | – | no binding (tested: 20 nM (highest analyte concentration)) |
| B10 | – | no binding (tested: 20 nM (highest analyte concentration)) |
| B11 | – | no binding (tested: 20 nM (highest analyte concentration)) |
| B12 | – | no binding (tested: 20 nM (highest analyte concentration)) |
| B13 | – | no binding (tested: 20 nM (highest analyte concentration)) |
| B14 | – | no binding (tested: 20 nM (highest analyte concentration)) |
| B15 | – | no binding (tested: 20 nM (highest analyte concentration)) |
| B2 | 2.91 | – |
| B3 | 2.75 | – |
| B16 | – | no binding (tested: 20 nM (highest analyte concentration)) |
| B17 | – | no binding (tested: 20 nM (highest analyte concentration)) |

Biological target: T3, rat LDLa-linker protein (ratRXFP2-LDLa-linker(20-88)) (Rattus norvegicus, UniProt Q5ECL0)
T3 construct: relaxin family peptide receptor 2 (RXFP2), rat, LDLa module and linker, residues 20-88; Expressed as LDLa-linker, enterokinase site, rat Fc, 8xHis; The Biacore methods say only 'LDLa-linker protein'; also called rat LDLa-linker domain; source: Expi293, transfected, purified (Histrap excel, SEC); enterokinase digestion, Hispur Ni resin, Superdex 200; not shown: rat Fc, C-terminal, cleaved; 8xHis, …
T3 sequence (Q5ECL0 entry or part of it): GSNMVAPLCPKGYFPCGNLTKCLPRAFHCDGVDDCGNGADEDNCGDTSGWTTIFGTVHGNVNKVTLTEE
Test: as above
Conditions: both partners purified

| Binder | Kd [nM] |
| --- | --- |
| B1 | 1.7 |
| B4 | 4.23 |
| B5 | 0.69 |
| B6 | 0.32 |
| B7 | 0.52 |
| B8 | 2.07 |
| B9 | 0.55 |
| B10 | 1.89 |
| B11 | 1.24 |
| B12 | 0.35 |
| B14 | 0.18 |
| B15 | 11.4 |
| B2 | 0.21 |
| B3 | 1.97 |
| B17 | 1.01 |

From publication PMC11162469, “Discovery of RXFP2 genetic association in resistant hypertensive men and RXFP2 antagonists for the treatment of resistant hypertension” (Scientific Reports, 2024)
